Several values for one entry are separate records, joined by “and”; a condition that tells them apart may be missing. Identical values can stand only once. Bridges are numbered along the chain shown (N, C = ends). Where no end group is shown, it is not given here.
Columns and labels:
intrinsic pathway = test: Human blood coagulation: activated partial thromboplastin time; type: biochemical; settings: human plasma, duplicates 21/1 and 21/2
Protocol: (§1) The effect of the proteins of the present invention on the blood coagulation process was tested in three standard assays, the thrombin time, testing any direct effects on thrombin; prothrombin time, testing any effects on the extrinsic pathway; and the activated partial thromboplastin time, testing any effects on the intrinsic pathway.
(§2) Blood was collected from a healthy individual by vein puncture after informed consent. The blood was treated with sodium-citrate (3.8% wt/vol) and centrifuged. All three assays were performed on the automated instrument Sysmex CA-1500 (Sysmex) with Innovin reagent (Dale Behring, Marburg, Germany).
(§3) The proteins of the present invention were applied in a twofold serial dilution in 1.4% wt/vol sodium bicarbonate (vehicle) with the highest final concentration being 10 μM (3.4 μM for EVO24 (SEQ ID NO: 15)) and the lowest final concentration being 156 nM (53 nM for EVO24 (SEQ ID NO: 15)).
(§4) All measurements were done in duplicates and a vehicle control was also tested. The highest concentration value is about 5 orders of magnitudes higher than the KD values of the four proteins of the present invention on human MASP-2.

thrombin = test: Human blood coagulation: thrombin time; type: biochemical; settings: human plasma, duplicates 21/1 and 21/2
Protocol: as §1, §2, §3, §4

extrinsic pathway = test: Human blood coagulation: prothrombin time; type: biochemical; settings: human plasma, duplicates 21/1 and 21/2
Protocol: as §1, §2, §3, §4

[1] = molecular target: T1, human MASP-2 (in normal human serum) (human, UniProt O00187 16-686); test: cell-based or functional assay
[2] = molecular target: rat MASP-2 (in rat serum) (rat, UniProt Q9JJS8 20-685); test: cell-based or functional assay
[3] = molecular target: T2, human MASP-2cf CCP1-CCP2-SP (human, UniProt O00187 298-686, limits assumed); test: enzyme inhibition, tight-binding fit
T2 construct: domain: CCP1-CCP2-SP; also called human MASP-2 catalytic fragment

[4] = molecular target: T3, rat MASP-2cf CCP1-CCP2-SP (rat, UniProt Q9JJS8 298-685); test: enzyme inhibition, tight-binding fit
T3 construct: range 298-685; Mw 42309 Da; also called rat MASP-2 catalytic fragment

[5] = molecular target: T2, human MASP-2cf CCP1-CCP2-SP; test: SPR, target immobilised
[6] = molecular target: T3, rat MASP-2cf CCP1-CCP2-SP; test: SPR, target immobilised
[7] = molecular target: T1, human MASP-2 (in normal human serum); test: cell-based or functional assay; remark: listed apart in the source

T3 sequence (Q9JJS8 other isoform, or with tags, fused parts or gaps limits assumed, form in doubt): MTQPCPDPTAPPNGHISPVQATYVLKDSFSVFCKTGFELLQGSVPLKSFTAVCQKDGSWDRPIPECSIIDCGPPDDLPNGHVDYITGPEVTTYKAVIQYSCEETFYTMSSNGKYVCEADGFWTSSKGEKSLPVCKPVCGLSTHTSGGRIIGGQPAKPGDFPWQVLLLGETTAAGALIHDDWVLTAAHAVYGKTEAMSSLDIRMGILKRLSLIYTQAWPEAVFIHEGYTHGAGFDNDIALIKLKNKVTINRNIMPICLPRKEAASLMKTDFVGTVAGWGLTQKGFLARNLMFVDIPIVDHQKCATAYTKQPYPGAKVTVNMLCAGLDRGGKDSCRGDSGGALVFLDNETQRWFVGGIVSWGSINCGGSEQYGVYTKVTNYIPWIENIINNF
T2 sequence (O00187 298-686 limits assumed): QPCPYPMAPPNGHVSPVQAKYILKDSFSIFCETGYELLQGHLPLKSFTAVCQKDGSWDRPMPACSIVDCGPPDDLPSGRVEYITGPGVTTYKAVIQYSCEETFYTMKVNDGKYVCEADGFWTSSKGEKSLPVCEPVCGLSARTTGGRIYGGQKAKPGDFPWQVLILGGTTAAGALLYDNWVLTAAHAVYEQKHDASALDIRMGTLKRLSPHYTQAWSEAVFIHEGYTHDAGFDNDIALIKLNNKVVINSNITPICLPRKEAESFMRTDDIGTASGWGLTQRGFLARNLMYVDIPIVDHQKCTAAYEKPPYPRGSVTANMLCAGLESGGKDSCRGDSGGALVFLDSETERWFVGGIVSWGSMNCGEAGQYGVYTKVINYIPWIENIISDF
T1 sequence (O00187 16-686 limits assumed): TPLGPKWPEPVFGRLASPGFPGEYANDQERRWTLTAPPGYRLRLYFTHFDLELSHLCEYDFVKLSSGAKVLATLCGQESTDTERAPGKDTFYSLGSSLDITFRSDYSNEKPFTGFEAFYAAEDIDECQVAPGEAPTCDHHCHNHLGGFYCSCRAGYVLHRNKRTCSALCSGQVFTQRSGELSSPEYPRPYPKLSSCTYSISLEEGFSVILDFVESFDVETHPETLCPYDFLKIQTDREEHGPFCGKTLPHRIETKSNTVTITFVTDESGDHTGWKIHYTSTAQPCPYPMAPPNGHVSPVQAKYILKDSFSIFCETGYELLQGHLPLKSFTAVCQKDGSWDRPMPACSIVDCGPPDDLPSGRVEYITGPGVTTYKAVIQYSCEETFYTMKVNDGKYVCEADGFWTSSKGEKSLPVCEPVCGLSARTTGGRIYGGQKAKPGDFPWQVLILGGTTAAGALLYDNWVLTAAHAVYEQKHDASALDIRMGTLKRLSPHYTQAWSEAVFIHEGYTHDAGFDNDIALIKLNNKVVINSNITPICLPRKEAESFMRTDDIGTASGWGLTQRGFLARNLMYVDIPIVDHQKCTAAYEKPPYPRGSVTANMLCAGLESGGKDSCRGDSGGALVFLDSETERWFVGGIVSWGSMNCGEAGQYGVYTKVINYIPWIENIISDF
Sequence of rat MASP-2 (in rat serum) (Q9JJS8 20-685 limits assumed): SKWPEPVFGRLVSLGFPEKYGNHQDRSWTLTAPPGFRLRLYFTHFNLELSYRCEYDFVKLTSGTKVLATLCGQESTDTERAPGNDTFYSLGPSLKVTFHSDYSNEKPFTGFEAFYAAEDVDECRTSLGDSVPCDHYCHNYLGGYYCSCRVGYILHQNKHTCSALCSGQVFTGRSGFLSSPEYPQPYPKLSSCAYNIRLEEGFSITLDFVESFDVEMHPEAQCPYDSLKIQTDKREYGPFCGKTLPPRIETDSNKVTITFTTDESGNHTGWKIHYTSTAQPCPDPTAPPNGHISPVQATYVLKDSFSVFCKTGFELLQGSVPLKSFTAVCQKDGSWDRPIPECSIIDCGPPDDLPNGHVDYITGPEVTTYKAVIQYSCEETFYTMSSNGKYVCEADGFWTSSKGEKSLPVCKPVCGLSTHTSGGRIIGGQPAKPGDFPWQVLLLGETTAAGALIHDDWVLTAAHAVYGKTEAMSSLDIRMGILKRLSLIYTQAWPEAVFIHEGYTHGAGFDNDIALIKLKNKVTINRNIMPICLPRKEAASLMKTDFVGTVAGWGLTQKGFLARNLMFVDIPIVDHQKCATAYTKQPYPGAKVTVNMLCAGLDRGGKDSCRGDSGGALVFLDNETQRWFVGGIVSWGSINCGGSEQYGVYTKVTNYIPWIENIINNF

KPDFCFLENDPGPCRALKRRYFYNNQTKQCERFGYGGCLGNMNNFVTLEECKNICEDG (disulfide 5-55, 14-38, 30-51) [EVO21]
APTT (intrinsic pathway; 0.15625 μM): 32.9 and 32.3 | APTT (intrinsic pathway; 0.3125 μM): 33.6 and 32.8 | APTT (intrinsic pathway; 0.625 μM): 34.3 and 33.6 | APTT (intrinsic pathway; 1.25 μM): 37.0 and 34.8 | APTT (intrinsic pathway; 2.5 μM): 40.0 and 37.1 | APTT (intrinsic pathway; 5 μM): 45.6 and 40.1 | APTT (intrinsic pathway; 10 μM): 58.7 and 67.6 | TT (thrombin; 0.15625 μM): 17.1 and 17.0 | TT (thrombin; 0.3125 μM): 16.9 and 17.0 | TT (thrombin; 0.625 μM): 16.8 and 16.9 | TT (thrombin; 1.25 μM): 16.9 and 17.1 | TT (thrombin; 2.5 μM): 16.4 and 17.4 | TT (thrombin; 5 μM): 16.5 and 17.4 | TT (thrombin; 10 μM): 16.8 and 16.4 | PI (extrinsic pathway; 0.15625 μM): 10.2 and 10.0 | PI (extrinsic pathway; 0.3125 μM): 10.1 and 10.0 | PI (extrinsic pathway; 0.625 μM): 10.1 and 10.0 | PI (extrinsic pathway; 1.25 μM): 10.2 and 10.1 | PI (extrinsic pathway; 2.5 μM): 10.3 and 10.2 | PI (extrinsic pathway; 5 μM): 10.6 and 10.3 | PI (extrinsic pathway; 10 μM): 11.4 and 11.9

B1: EVO22 (designed binder)
chain: KPDFCFLENDPGPCRALKRRYFYNNQTKQCERFYYGGCLGNMNNFVTLEECKNICEDG
modifications: not fully specified; cysteine pairing not given here
notes: Modified TFPI-D2 Kunitz domain; made as m1
IC50, lectin pathway C4 deposition, human serum [1]: 4.1 nM | Relative potency, lectin pathway, human serum [1]: 33.4 fold vs EVO2 | IC50, lectin pathway C4 deposition, rat serum [2]: 9.9 nM | Relative potency, lectin pathway, rat serum [2]: 10.8 fold vs EVO2 | Ki [3]: 0.15 nM | Ki [4]: 0.31 nM | Kd [5]: 0.137 nM | Relative affinity [5]: 13.1 fold vs EVO2 | koff [5]: 0.000314 s⁻¹ | kon [5]: 2.3e+06 M⁻¹ s⁻¹ | Kd [6]: 0.229 nM | Relative affinity [6]: 15.9 fold vs EVO2 | koff [6]: 0.000256 s⁻¹ | kon [6]: 1.12e+06 M⁻¹ s⁻¹

B2: EVO222 (designed binder)
chain: KPDFCFLENDPGLCRAAAVRYFYNNQTKQCERFYYGGCLGNMNNFVTLEECKNICEDG
modifications: not fully specified; cysteine pairing not given here
notes: as for B1
IC50, lectin pathway C4 deposition, human serum [1]: 9.8 nM | Relative potency, lectin pathway, human serum [1]: 14.1 fold vs EVO2 | IC50, lectin pathway C4 deposition, rat serum [2]: 24.2 nM | Relative potency, lectin pathway, rat serum [2]: 8.9 fold vs EVO2 | Ki [3]: 0.1 nM | Ki [4]: 0.27 nM | Relative affinity [5]: 40 fold vs EVO2 | koff [5]: 4.26e-05 s⁻¹ | kon [5]: 954000 M⁻¹ s⁻¹ | Kd [6]: 0.566 nM | Relative affinity [6]: 6.4 fold vs EVO2 | koff [6]: 0.000262 s⁻¹ | kon [6]: 463000 M⁻¹ s⁻¹

B3: EVO223 (designed binder)
chain: KPDFCFLENDPGPCRAAAVRYFYNNQTKQCERFYYGGCLGNMNNFVTLEECKNICEDG
notes: as for B1
IC50, lectin pathway C4 deposition, human serum [1]: 9.9 nM | Relative potency, lectin pathway, human serum [1]: 14 fold vs EVO2 | IC50, lectin pathway C4 deposition, rat serum [2]: 12 nM | Relative potency, lectin pathway, rat serum [2]: 8.9 fold vs EVO2 | Ki [4]: 0.09 nM | Kd [5]: 0.054 nM | Relative affinity [5]: 33.1 fold vs EVO2 | koff [5]: 4.77e-05 s⁻¹ | kon [5]: 882000 M⁻¹ s⁻¹ | Kd [6]: 0.108 nM | Relative affinity [6]: 33.6 fold vs EVO2 | koff [6]: 7.53e-05 s⁻¹ | kon [6]: 696000 M⁻¹ s⁻¹

B4: EVO224 (designed binder)
chain: KPDFCFLENDPGVCRALAVRYFYNNQTKQCERFYYGGCLGNMNNFVTLEECKNICEDG
modifications: not fully specified; cysteine pairing not given here
notes: as for B1
IC50, lectin pathway C4 deposition, human serum [1]: 30.9 nM | Relative potency, lectin pathway, human serum [1]: 4.5 fold vs EVO2 | IC50, lectin pathway C4 deposition, rat serum [2]: 29.6 nM | Relative potency, lectin pathway, rat serum [2]: 3.6 fold vs EVO2 | Ki [3]: 1.13 nM | Ki [4]: 0.14 nM | Kd [5]: 0.561 nM | Relative affinity [5]: 3.2 fold vs EVO2 | koff [5]: 0.000617 s⁻¹ | kon [5]: 1.1e+06 M⁻¹ s⁻¹ | Kd [6]: 0.219 nM | Relative affinity [6]: 16.6 fold vs EVO2 | koff [6]: 0.000184 s⁻¹ | kon [6]: 839000 M⁻¹ s⁻¹

B5: EVO21c (designed binder)
chain: KPDFCFLEEDPGPCRALKRRYFYNNQTKQCERFGYGGCFGNMNNFVTLEECKNICEDG
modifications: not fully specified; cysteine pairing not given here
notes: as for B1
Relative potency (relative human lectin pathway inhibitory efficiency compared to EVO2) [7]: 22.3 fold relative to EVO2 | IC50, lectin pathway C4 deposition, human serum [1]: 6.2 nM | Relative potency, lectin pathway, human serum [1]: 22.4 fold vs EVO2 | IC50, lectin pathway C4 deposition, rat serum [2]: 12.4 nM | Relative potency, lectin pathway, rat serum [2]: 8.5 fold vs EVO2 | Ki [3]: 0.065 nM | Ki [4]: 0.007 nM

B6: EVO221 (designed binder)
chain: KPDFCFLENDPGVCRAAAVRYFYNNQTKQCERFYYGGCLGNMNNFVTLEECKNICEDG
modifications: not fully specified; cysteine pairing not given here
notes: as for B1
Relative potency (relative human lectin pathway inhibitory efficiency compared to EVO2) [7]: 10.8 fold relative to EVO2 | IC50, lectin pathway C4 deposition, human serum [1]: 12.7 nM | Relative potency, lectin pathway, human serum [1]: 10.9 fold vs EVO2 | IC50, lectin pathway C4 deposition, rat serum [2]: 11 nM | Relative potency, lectin pathway, rat serum [2]: 9.7 fold vs EVO2 | Ki [3]: 0.19 nM | Ki [4]: 0.1 nM | Kd [5]: 0.127 nM | Relative affinity [5]: 14.1 fold vs EVO2 | koff [5]: 0.000131 s⁻¹ | kon [5]: 1.03e+06 M⁻¹ s⁻¹ | Kd [6]: 0.17 nM | Relative affinity [6]: 21.4 fold vs EVO2 | koff [6]: 0.000113 s⁻¹ | kon [6]: 664000 M⁻¹ s⁻¹

B7: EVO2 (designed binder)
chain: KPDFCFLEEDPGPCRAVKRRYFYNNQTKQCERFKYGGCLGNMNNFETLEECKNICEDG
modifications: not fully specified; ends and bridges not checked
notes: Modified Kunitz domain TFPI-D2 of human TFPI-1; recombinant from E. coli, freed from a His6-S100A4 fusion by TEV protease; also called TFMI-2b
IC50, lectin pathway C4 deposition, human serum [1]: 138 nM | Relative potency, lectin pathway, human serum [1]: 1 fold vs EVO2 | IC50, lectin pathway C4 deposition, rat serum [2]: 106 nM | Relative potency, lectin pathway, rat serum [2]: 1 fold vs EVO2 | Ki [3]: 0.65 nM | Ki [4]: 0.24 nM | Kd [5]: 1.79 nM | Relative affinity [5]: 1 fold vs EVO2 | koff [5]: 0.0014 s⁻¹ | kon [5]: 809000 M⁻¹ s⁻¹ | Kd [6]: 3.63 nM | Relative affinity [6]: 1 fold vs EVO2 | koff [6]: 0.00107 s⁻¹ | kon [6]: 310000 M⁻¹ s⁻¹

Source: patent US20260098080A1, “A MODIFIED PROTEIN SCAFFOLD AND USE THEREOF” (EVOLVERITAS BIOTECHNOLÓGIAI KORLÁTOLT FELELOSSÉGU TÁRSASÁG, priority 2022, published 2026)
